From patent publication EP1452542A2 (Novartis AG, dated 2004)
Numbering of substitutions follows the chain as printed.

B1: reshaped human C21 antibody C21-H3/L1 (antibody, V domains shown)
VH: QVQLVQSGAEVKKPGASVKVSCKASGYTFSMYWLEWVRQAPGHGLEWVGEISPGTFTTNYNEKFKARATFTADTSTNTAYMELSSLRSEDTAVYYCARFSHFSGSNYDYFDYWGQGTLVTVSS
VL: DILLTQSPGTLSLSPGERATLSCRASQSIGTNIHWYQQKPGQAPRLLIKYASESISGIPSRFSGSGSGTDFTLTISRLEPEDFAMYYCQQSDSWPTTFGQGTKVEIK
B2: reshaped human C21 antibody C21-H1/L1 (antibody, V domains shown)
VH: B1 VH with R38K, A40R, R67K, R87T
VL: B1 VL
B3: reshaped human C21 antibody C21-Hay3/L1 (antibody, V domains shown)
VH: B1 VH with H43Q, G44R, V48M, T76A, N77S
VL: B1 VL
B4: reshaped human C21 antibody C21-Hay3/L3 (antibody, V domains shown)
VH: B1 VH with H43Q, G44R, V48M, T76A, N77S
VL: B1 VL with D1E, L3V
B5: reshaped human C21 antibody C21-H1/L3 (antibody, V domains shown)
VH: B1 VH with R38K, A40R, R67K, R87T
VL: B1 VL with D1E, L3V
notes: C21-L3 is C21-L1 with Glu instead of Asp at position 1 and Val instead of Leu at position 3
B6: reshaped human C21 antibody C21-H3/L2 (antibody, V domains shown)
VH: B1 VH
VL: B1 VL with S60D
B7: reshaped human C21 antibody C21-H1/L2 (antibody, V domains shown)
VH: B1 VH with R38K, A40R, R67K, R87T
VL: B1 VL with S60D
notes: C21-L2 is C21-L1 with aspartic acid instead of serine at position 60
B8: reshaped human C21 antibody C21-H3/L3 (antibody, V domains shown)
VH: B1 VH
VL: B1 VL with D1E, L3V
B9: reshaped human C21 antibody C21-Hay3/L2 (antibody, V domains shown)
VH: B1 VH with H43Q, G44R, V48M, T76A, N77S
VL: B1 VL with S60D

What follows are binders tested against T1, human IgE; monoclonal antibody SE44 (human, UniProt P01854-1 1-428) (assay: BIAcore SPR, Kaff from kass and kdiss).
T1 construct: domain: human e constant region; also called IgE (SE44); human monoclonal IgE (SE44)
With B1 the Ka was 1.32e+10 M⁻¹.
B2 gave a Ka of 8.7e+09 M⁻¹.
Work on B3 yielded a Ka of 6.1e+09 M⁻¹.
Binder B4 has a Ka of 1.6e+09 M⁻¹.
Work on B5 yielded a Ka of 4.7e+09 M⁻¹.
In the case of B6, the Ka is reported as 5.7e+09 M⁻¹.
B7 gave a Ka of 4.9e+09 M⁻¹.
With B8 the Ka was 7.4e+09 M⁻¹.
With B9 the Ka was 8.1e+09 M⁻¹.

These binders were tested against T1, human IgE; monoclonal antibody SE44 (assay: BIAcore SPR, antibody captured via anti-human IgG, IgE SE44 3.125-25 nM in flow, 25°C).
In the case of B1, the kon is reported as 250000 M⁻¹ s⁻¹.
Work on B2 yielded a kon of 260000 M⁻¹ s⁻¹.
Binder B3 has a kon of 250000 M⁻¹ s⁻¹.
For B4, the kon was 260000 M⁻¹ s⁻¹.
Work on B5 yielded a kon of 290000 M⁻¹ s⁻¹.
Work on B6 yielded a kon of 250000 M⁻¹ s⁻¹.
For B7, the kon was 280000 M⁻¹ s⁻¹.
B8 showed a kon of 260000 M⁻¹ s⁻¹.
In the case of B9, the kon is reported as 250000 M⁻¹ s⁻¹.

Each binder was assayed against T1, human IgE; monoclonal antibody SE44 (assay: BIAcore SPR, antibody captured via anti-human IgG, IgE SE44 25 nM, dissociation in HBS, 25°C).
B1 showed a koff of 1.9e-05 s⁻¹.
Binder B2 has a koff of 3e-05 s⁻¹.
Work on B3 yielded a koff of 4.1e-05 s⁻¹.
For B4, the koff was 0.000159 s⁻¹.
B5 was tested, and the koff was 6.2e-05 s⁻¹.
B6 was tested, and the koff was 4.4e-05 s⁻¹.
For B7, the koff was 5.7e-05 s⁻¹.
With B8 the koff was 3.5e-05 s⁻¹.
B9 was tested, and the koff was 3.1e-05 s⁻¹.
